Assays:
[1] = survival on 9.125 mM tBHP, skn-1(zu67) background; conditions: glycan lost; control: skn-1(zu67) expressing SKN-1B/C::GFP
[2] = survival on 9.125 mM tBHP, N2 background; conditions: glycan lost; control: N2 expressing SKN-1B/C::GFP
[3] = worm lifespan at 20 °C, skn-1(zu67) background; conditions: glycan lost; control: skn-1(zu67) expressing SKN-1B/C::GFP
[4] = GFP scoring of intestinal nuclei, tBHP
[5] = GFP scoring of intestinal nuclei, gsk-3 RNAi; conditions: glycan lost, control: SKN-1B/C::GFP worms
[6] = in vitro kinase assay, anti-phosphoserine blot; conditions: glycan lost; control: wild type GST-SKN-1(321–623aa) co-expressed with HIS-OGT-1
[7] = worm lifespan at 20 °C, N2 background; conditions: glycan lost; control: N2 expressing SKN-1B/C::GFP
[8] = GFP scoring of intestinal nuclei, oga-1 background; conditions: glycan lost; control: SKN-1B/C::GFP in oga-1(ok1207)
[9] = GFP scoring of intestinal nuclei, normal condition; conditions: control: N2 expressing SKN-1B/C::GFP, untreated
[10] = SKN-1 expression in ASI neurons; conditions: control: wild type worms
[11] = anti-phospho-SKN-1(Ser483) blot; conditions: glycan gained; control: wild type worms

B1: SKN-1: S470A/T493A (protein)
parent chain: MGGSSRRQRSTSATRRDDKRRRRQCFSSVADDEEETTSIYGVSSIFIWILATSSLILVISSPSSNTSIQSSSYDRITTKHLLDNISPTFKMYTDSNNRNFDEVNHQHQQEQDFNGQSKYDYPQFNRPMGLRWRDDQRMMEYFMSNGPVETVPVMPILTEHPPASPFGRGPSTERPTTSSRYEYSSPSLEDIDLIDVLWRSDIAGEKGTRQVAPADQYECDLQTLTEKSTVAPLTAEENARYEDLSKGFYNGFFESFNNNQYQQKHQQQQREQIKTPTLEHPTQKAELEDDLFDEDLAQLFEDVSREEGQLNQLFDNKQQHPVINNVSLSEGIVYNQANLTEMQEMRDSCNQVSISTIPTTSTAQPETLFNVTDSQTVEQWLPTEVVPNDVFPTSNYAYIGMQNDSLQAVVSNGQIDYDHSYQSTGQTPLSPLIIGSSGRQQQTQTSPGSVTVTATATQSLFDPYHSQRHSFSDCTTDSSSTCSRLSSESPRYTSESSTGTHESRFYGKLAPSSGSRYQRSSSPRSSQSSIKIARVVPLASGQRKRGRQSKDEQLASDNELPVSAFQISEMSLSELQQVLKNESLSEYQRQLIRKIRRRGKNKVAARTCRQRRTDRHDKMSHYI
For B1, the “other: oxidative stress resistance conferred by transgene” value [1] was “abolishes”, the “other: oxidative stress resistance conferred by transgene” value [2] was “abolishes” and the “other: lifespan extension by transgene” value [3] was “abolishes”. For the same protein, the localisation_or_trafficking ([4]; glycan lost, control: SKN-1B/C::GFP in N2, tBHP-treated) was “decreases”, the localisation_or_trafficking [5] was “decreases” and the “other: phosphorylation by GSK-3” value [6] was “increases”. For the same protein, the “other: lifespan extension by transgene” value [7] was “abolishes” and the localisation_or_trafficking [8] was “decreases”.

B2: SKN-1: oga-1(ok1207) (protein)
parent chain: B1 parent chain
In the case of B2, the localisation_or_trafficking ([4]; glycan gained, control: N2 expressing SKN-1B/C::GFP, tBHP-treated) is reported as “increases” and the localisation_or_trafficking ([9]; glycan gained) is reported as “increases”.

B3: SKN-1: ogt-1 loss (protein)
parent chain: B1 parent chain
In the case of B3, the expression_or_secretion ([10]; glycan lost) is reported as “no change”.

B4: SKN-1: ogt-1(ok1474) (protein)
parent chain: B1 parent chain
With B4 the localisation_or_trafficking ([4]; glycan lost, control: N2 expressing SKN-1B/C::GFP, tBHP-treated) was “decreases” and the localisation_or_trafficking ([9]; glycan lost) was “no change”.

B5: SKN-1: without HIS-OGT-1 (protein)
parent chain: B1 parent chain
With B5 the “other: phosphorylation by GSK-3” value [6] was “increases”.

B6: SKN-1: oga-1 loss (protein)
parent chain: B1 parent chain
For B6, the expression_or_secretion ([10]; glycan gained) was “no change” and the “other: Ser483 phosphorylation” value [11] was “decreases”.

B7: SKN-1: T493A (protein)
parent chain: B1 parent chain
With B7 the “other: phosphorylation by GSK-3” value [6] was “increases”.

Source: publication PMC5341102
